Measured values taken from publication PMC11910552, “Regulation of acetyl-CoA biosynthesis via an intertwined acetyl-CoA synthetase/acetyltransferase complex” (Nature Communications, 2025).

B3: Acetyl-CoA synthetase AcsA (Bacillus subtilis) (enzyme)
chain: MNLKALPAIEGDHNLKNYEETYRHFDWAEAEKHFSWHETGKLNAAYEAIDRHAESFRKNKVALYYKDAKRDEKYTFKEMKEESNRAGNVLRRYGNVEKGDRVFIFMPRSPELYFIMLGAIKIGAIAGPLFEAFMEGAVKDRLENSEAKVVVTTPELLERIPVDKLPHLQHVFVVGGEAESGTNIINYDEAAKQESTRLDIEWMDKKDGFLLHYTSGSTGTPKGVLHVHEAMIQQYQTGKWVLDLKEEDIYWCTADPGWVTGTVYGIFAPWLNGATNVIVGGRFSPESWYGTIEQLGVNVWYSAPTAFRMLMGAGDEMAAKYDLTSLRHVLSVGEPLNPEVIRWGHKVFNKRIHDTWWMTETGSQLICNYPCMDIKPGSMGKPIPGVEAAIVDNQGNELPPYRMGNLAIKKGWPSMMHTIWNNPEKYESYFMPGGWYVSGDSAYMDEEGYFWFQGRVDDVIMTSGERVGPFEVESKLVEHPAIAEAGVIGKPDPVRGEIIKAFIALREGFEPSDKLKEEIRLFVKQGLAAHAAPREIEFKDKLPKTRSGKIMRRVLKAWELNLPAGDLSTMED
notes: AcsA, acetyl-CoA synthetase of Bacillus subtilis; gene amplified from genomic DNA of strain 3610; catalytic lysine K549; the gene came from strain 3610; Monomer and dimer seen by mass photometry; also called Ac-CoA synthetase; source: E. coli BL21(DE3), purified (HisTrap, SEC)

Experiments:
AcuA = biological target: T1, AcuA (Bacillus subtilis, UniProt P39065); test: isothermal titration calorimetry, one binding site model
T1 construct: monomer 21 kDa by mass photometry

[1] = biological target: B3; test: cell-based or functional assay
[2] = biological target: B3; test: pull-down; 200 μg GST-tagged protein immobilised on GST-Sepharose beads in spin columns, 200 μg partner added in SEC buffer (20 mM HEPES-Na pH 7.5, 200 mM NaCl, 20 mM KCl, 20 mM MgCl2), 30 min, three washes, elution with 20 mM GSH, Coomassie-stained SDS-PAGE; without Ac-CoA (also with 1 mM ATP, 1 mM AMP or 130 μM CoA, or with AcuB and AcuC added); conditions: both partners purified
[3] = biological target: the molecule itself; test: mass photometry; TwoMP mass photometer, SEC buffer, 37.5 nM final protein concentration; proteins alone or 37.5 nM AcsA with 37.5 nM AcuA
purified protein = substrate: CC(=O)O; test: purified protein; conditions: without AcuA; 1 mM CoA, ATP 2.5 mM or 2 mM, 0.1 mM DTT, room temperature
[4] = biological target: T2, Acetyl-CoA synthetase AcsA (Bacillus subtilis) (Bacillus subtilis) (UniProt P39062)
T2 sequence: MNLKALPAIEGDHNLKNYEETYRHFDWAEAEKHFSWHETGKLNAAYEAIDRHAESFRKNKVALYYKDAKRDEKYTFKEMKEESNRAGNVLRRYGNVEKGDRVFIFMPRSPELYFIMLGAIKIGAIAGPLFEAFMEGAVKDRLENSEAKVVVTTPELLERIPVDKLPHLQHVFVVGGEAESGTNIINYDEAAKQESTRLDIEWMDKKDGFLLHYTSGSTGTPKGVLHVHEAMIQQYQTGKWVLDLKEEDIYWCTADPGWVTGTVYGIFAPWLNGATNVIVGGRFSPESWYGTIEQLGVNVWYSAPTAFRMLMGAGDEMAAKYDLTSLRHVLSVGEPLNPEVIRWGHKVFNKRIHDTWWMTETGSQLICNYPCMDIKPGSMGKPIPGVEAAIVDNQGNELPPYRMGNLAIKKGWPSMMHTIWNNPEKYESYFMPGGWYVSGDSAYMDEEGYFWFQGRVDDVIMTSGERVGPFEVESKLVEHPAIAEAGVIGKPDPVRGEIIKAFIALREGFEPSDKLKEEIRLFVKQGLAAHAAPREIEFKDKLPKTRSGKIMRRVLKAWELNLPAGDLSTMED

CC(=O)SCCNC(=O)CCNC(=O)[C@H](O)C(C)(C)COP(=O)(O)OP(=O)(O)OC[C@H]1O[C@@H](n2cnc3c(N)ncnc32)[C@H](O)[C@@H]1OP(=O)(O)O [Ac-CoA]
Kd (AcuA): 9.47 ± 0.51 µM

B1: GCN5-related N-acetyltransferase AcuA (Bacillus subtilis) (enzyme)
chain: MEHHKTYHSANIKTATGSLLIEGPVSPEDLAGYEFHKDLTAFRPPREQHEALVDIAGLPEGRIIIARDGRTIVGYVTYLYPDPLERWSEGNMEDLIELGAIEVAPDYRGCAVGKTLLTVSMMDEQMENYIVMTTEYYWHWDLKGMKKDVWEYRKIMEKMMNAGGLVWFATDEPEISSHPANCLMARIGKNVSQESIEQFDRLRFYHRYMY
Vmax of Ac-CoA production by AcsA (HPLC) at AcsA:AcuA ratios 1:0.5, 1:1, 1:2, 1:5: 1834 down to 390 nmol mg^−1 min^−1 (without AcuA 2167) [1]: 1830 nmol/mg/min

B2: GST-AcuA_E102Q (enzyme, Bacillus subtilis)
chain: MEHHKTYHSANIKTATGSLLIEGPVSPEDLAGYEFHKDLTAFRPPREQHEALVDIAGLPEGRIIIARDGRTIVGYVTYLYPDPLERWSEGNMEDLIELGAIQVAPDYRGCAVGKTLLTVSMMDEQMENYIVMTTEYYWHWDLKGMKKDVWEYRKIMEKMMNAGGLVWFATDEPEISSHPANCLMARIGKNVSQESIEQFDRLRFYHRYMY
notes: source: E. coli BL21(DE3), purified
binding result [2]: binds

B3
stoichiometry N [3]: 2
Km (purified protein): 430 µM
Vmax (purified protein): 2.17 µmol/min/mg

B4: AcuA C-terminus peptide (201-…-210) (peptide)
peptide: RLRFYHRYMY
AcsA activity (HPLC) with 0-1 mM AcuA C-terminus peptide; reduction of activity at 1 mM [4]: 90%
